Values of other authors, collected in PMC8820802.

Test system: streptavidin
Conditions: 50 mM Tris-HCl pH 7.6, 10 mM MgCl2, 100 mM KCl, 10% glycerol, 0.05% NP-40, protease inhibitor; HEK293T lysate on streptavidin-Sepharose, 16 h, 4 C

Substance | Kd [nM]
S1m aptamer | 29
S1 aptamer | 79
